Laboratory results reported in the RNAGym collection of RNA variant scans (doi:10.7554/elife.80360).

B1: HDV Ribozyme (parent)
chain: GGCCGGCAUGGUCCCAGCCUCCUCGCUGGCGCCGGCUGGGCAACAUUCCGAGGGGACCGUCCCCUCGGUAAUGGCGAAUGGGACCCA

Variants of: B1
Test: self-cleavage, relative activity (ratio to wild type); higher = more cleavage; co-transcriptional

First: GGCCCGCAUGGUCCCAGCCUCCACGCUGGCGCCGGCUGGGCAACAUUCCGAGGGGACCGUCCCCUCGGUAAUGGCGAAUGGGACCCA [G5C U23A]
Second: GGCCGGCAUGGUCCCAGCCUCCUCUCUGGCGCCGGCUGGGCAACAAUCCGAGGGGACCGUCCCCUCGGUAAUGGCGAAUGGGACCCA [G25U U46A]
The self-cleavage of the first is lower: 0 for the first, 0.0852 for the second.

Going from GCCCGGCAUGGUCCCAGCCUCCUCGCUGGCGCCGGCUGGGCAACAUUACGAGGGGACCGUCCCCUCGGUAAUGGCGAAUGGGACCCA [G2C C48A] to GGCCGGCAUGGUCCCAGCCUCCUCGCUGGCGCCGGCUGCGCAACAUUCCGAGGGGACCGUCCCCUCGGUAAUGGCGAUUGGGACCCA [G39C A78U], the self-cleavage rises from 0 to 0.131.

First: GGCCGGCAUGGUCCCAGCCUCCUCGCUGGCGCCGGCUGGGCAACAUUCCGAGCGGACCGUCCCCUCGGUUAUGGCGAAUGGGACCCA [G53C A70U]
Second: GGCCGGCAUGGUCCCAGCCUCCUCGCUGGCGCCGGCUGGGCAACAUUCCGAGGGGACUGUCCCCUCGGUAAUGGCGAAUGGGAACCA [C58U C84A]
The self-cleavage of the first is lower: 0.988 for the first, 1.02 for the second.

First: GGCCGACAUGUUCCCAGCCUCCUCGCUGGCGCCGGCUGGGCAACAUUCCGAGGGGACCGUCCCCUCGGUAAUGGCGAAUGGGACCCA [G6A G11U]
Second: GGCCGGCAUGGUCCCAGCCUCCUCGCUGGCGCCAGCUGGGCAACAUUCCGAAGGGACCGUCCCCUCGGUAAUGGCGAAUGGGACCCA [G34A G52A]
The self-cleavage of the first is lower: 0.095 for the first, 0.286 for the second.

First: GGCCGGCAUGGUGCCAGCCUCCUCGCUGGCGCCGGCUGGGCAACAUUCCGAGAGGACCGUCCCCUCGGUAAUGGCGAAUGGGACCCA [C13G G53A]
Second: GGCCGGCAUGGUCGCAGGCUCCUCGCUGGCGCCGGCUGGGCAACAUUCCGAGGGGACCGUCCCCUCGGUAAUGGCGAAUGGGACCCA [C14G C18G]
The self-cleavage of the first is higher: 0.163 for the first, 0 for the second.

First: GGCCGGCAUGGUCCCAGCCUCCUCGCUGUCCCCGGCUGGGCAACAUUCCGAGGGGACCGUCCCCUCGGUAAUGGCGAAUGGGACCCA [G29U G31C]
Second: GGCCGGCAUGGUCCCAGCGUCCUCGCUGGCGCCGGCUGGGCAACAUUCCGAGGGGAACGUCCCCUCGGUAAUGGCGAAUGGGACCCA [C19G C57A]
The self-cleavage of the first is higher: 0.141 for the first, 0.0256 for the second.

First: GGCCGGCAUGGUCCCAGCCUCCUCGCUGGCGCCGGCUGGGCAACACUCCGAGGGGACCGUCCCCUCGGUCAUGGCGAAUGGGACCCA [U46C A70C]
Second: GGCCGGCAUGGUCCCAGCCUCCGCGCUGGCGCCGGCUGGGCAACAUUCCCAGGGGACCGUCCCCUCGGUAAUGGCGAAUGGGACCCA [U23G G50C]
The self-cleavage of the first is higher: 0.795 for the first, 0.767 for the second.

Compared with GGCCGGCAUGGUCCCAGCCUCCUCGCUGGCGACGGCUGGGCAACAUUCCGAGGGGACCGUCCCCUCGGUAAUGGUGAAUGGGACCCA [C32A C75U], GGGCGGCAUGGUCCCAGCCUCCUCGCUGGCGCCGGCUGGGCAACAUUCCGAGGGGACCGUCCCCUCGGUAAUUGCGAAUGGGACCCA [C3G G73U] is lower in self-cleavage: 0.0791 for the first, 0.0583 for the second.

Compared with GGACGGCAUGGUCCCAGCCUCCUCGCUGGCGCCGGCUGGGCAACAUUCCGAGGGGACCGUCGCCUCGGUAAUGGCGAAUGGGACCCA [C3A C62G], GACCGGCAUGGUCCCAGCCUACUCGCUGGCGCCGGCUGGGCAACAUUCCGAGGGGACCGUCCCCUCGGUAAUGGCGAAUGGGACCCA [G2A C21A] is lower in self-cleavage: 0.0773 for the first, 0.0158 for the second.

First: GGCCGGCAUGGUCCCAGCCUCCUCGCUGGCGCCGGCUGGGCAACAUUCCGAGGGGACCGGCCCCUCGGUAAUGGCGAAUGGGACCCG [U60G A87G]
Second: GGCCGGCAUGGUCCCAGCCUCCUCGCUGGCGCCGGCUGGGCAACAUUCCGAGGGGGCCGUCGCCUCGGUAAUGGCGAAUGGGACCCA [A56G C62G]
The self-cleavage of the first is higher: 0.921 for the first, 0.731 for the second.

Compared with GGCCGGCAUGGUCCCAGCCUCCUCGCCGGCGCCGGCUGGGCAACAUUCCGAGGGGACCGUCCCCUCGGUAAUGGCGAAUGGCACCCA [U27C G82C], GGCCGGCCUGGUCCCAGCCUCCUCGCUGGCGCCGGCUGGGCAACAUUCCGAGGGGACCGUCCCCUCGGAAAUGGCGAAUGGGACCCA [A8C U69A] is higher in self-cleavage: 0.356 for the first, 0.688 for the second.

Compared with GGCCGGCAUGGUCCCAGCCUCCUCGCUGGCGUCGGCUGGGCAACAUUCCGAGGGGACCGUCCCCUCGGUAAUGGCGAAUGGGUCCCA [C32U A83U], GGCCGGCAUGGUCCCAGCCUCCUCGCUGGCGCCGGCUGGGCAACAUCCCGAGGGGACCGUCCCCCCGGUAAUGGCGAAUGGGACCCA [U47C U65C] is higher in self-cleavage: 0.456 for the first, 0.733 for the second.

Compared with GGCCGGCAUGGUCCCAGCCUCCUCGCUGGCGCCGGCUGGGCAACAUUCCGAGGGGACCGUCCCCUCGGUAUUGGCGAAUGGGACUCA [A71U C85U], GGCCGGCAUGGUCCCAGCCUCCUCGCUAGCGCCGGCUGGGCAACAUUCCGAGGGGACCGUCGCCUCGGUAAUGGCGAAUGGGACCCA [G28A C62G] is lower in self-cleavage: 1.17 for the first, 0.111 for the second.

First: GGCCGGCAUGGUCCCAGCCUCCUCCCUGGCGCCGGCUGGGCAACCUUCCGAGGGGACCGUCCCCUCGGUAAUGGCGAAUGGGACCCA [G25C A45C]
Second: GGCCGGCUUGGUCCCAGCCUCCUCGCUGGCGCCGGCUGGGCUACAUUCCGAGGGGACCGUCCCCUCGGUAAUGGCGAAUGGGACCCA [A8U A42U]
The self-cleavage of the first is lower: 0.0875 for the first, 0.314 for the second.

Going from GGCCGGCAUGGUCCCAGCCUCCUCGCUCGCGCCGGCUGGGCAACAUUCCGAGUGGACCGUCCCCUCGGUAAUGGCGAAUGGGACCCA [G28C G53U] to GGCCGGCAUGGUCCCAGCCUCCUCGCUGGCGCCAGCUGGGCCACAUUCCGAGGGGACCGUCCCCUCGGUAAUGGCGAAUGGGACCCA [G34A A42C], the self-cleavage falls from 0.123 to 0.0354.

Going from GGCCGGCAUGGUCCCAGCCUCCUCGCUGGCGCCGACUGGGCAACAUUCCAAGGGGACCGUCCCCUCGGUAAUGGCGAAUGGGACCCA [G35A G50A] to GGACGGCAUGGUCCCAGCCUCCUCGCUGGCGCCGGCUGGGCAACAUUCCGAGGGGACCGUCCGCUCGGUAAUGGCGAAUGGGACCCA [C3A C63G], the self-cleavage falls from 0.692 to 0.285.
